Assay results published in patent US20090060919A1 (AstraZeneca / MedImmune, published 2009).

Columns and labels:
[1] = molecular target: T1, human IgEλ (U266 derived) (human, UniProt P01854-1 1-428); assay: HTRF competition: scFv against Eu-cryptate human IgE binding to human FcεRI-Fc; geomean (95% CI)
T1 construct: Whole IgE purified from U266 cells (Ikeyama et al. 1986); labelled with europium cryptate or biotin in some assays; also called human IgE (U266-derived); human IgE lambda

[2] = molecular target: T1, human IgEλ (U266 derived); assay: cell-based or functional assay
[3] = molecular target: recombinant chimaeric cynomolgus IgE (D12 variable regions, cynomolgus IgE constant region) (cynomolgus monkey); assay: cell-based or functional assay
Chain of recombinant chimaeric cynomolgus IgE (D12 variable regions, cynomolgus IgE constant region) (cynomolgus monkey) (heavy, as listed by the source limits assumed, chain 1 of 2): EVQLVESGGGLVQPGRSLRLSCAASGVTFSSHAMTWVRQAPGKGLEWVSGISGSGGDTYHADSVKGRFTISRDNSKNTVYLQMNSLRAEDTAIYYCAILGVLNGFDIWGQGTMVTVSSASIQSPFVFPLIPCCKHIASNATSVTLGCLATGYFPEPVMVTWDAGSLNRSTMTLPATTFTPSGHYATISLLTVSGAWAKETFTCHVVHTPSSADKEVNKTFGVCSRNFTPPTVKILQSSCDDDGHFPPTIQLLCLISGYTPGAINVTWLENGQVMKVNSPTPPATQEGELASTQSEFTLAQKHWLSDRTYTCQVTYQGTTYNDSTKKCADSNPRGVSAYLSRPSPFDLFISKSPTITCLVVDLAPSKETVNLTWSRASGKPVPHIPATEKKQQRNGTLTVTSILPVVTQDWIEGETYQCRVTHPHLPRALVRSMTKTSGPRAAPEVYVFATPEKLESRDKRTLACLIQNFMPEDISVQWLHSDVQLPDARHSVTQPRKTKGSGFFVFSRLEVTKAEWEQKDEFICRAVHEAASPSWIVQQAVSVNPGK
Chain of recombinant chimaeric cynomolgus IgE (D12 variable regions, cynomolgus IgE constant region) (cynomolgus monkey) (light, as listed by the source limits assumed, chain 2 of 2): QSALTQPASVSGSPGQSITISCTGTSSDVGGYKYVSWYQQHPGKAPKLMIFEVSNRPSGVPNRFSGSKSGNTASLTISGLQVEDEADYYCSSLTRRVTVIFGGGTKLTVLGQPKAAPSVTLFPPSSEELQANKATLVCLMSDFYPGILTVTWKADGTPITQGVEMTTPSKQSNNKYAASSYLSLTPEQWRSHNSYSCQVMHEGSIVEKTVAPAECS

[4] = molecular target: T1, human IgEλ (U266 derived); assay: SPR (BIAcore 2000): IgG captured on protein G', IgE as analyte, bivalent analyte model; geomean
Description: In brief, Protein G′ (Sigma Aldrich, P4689) was covalently coupled to the surface of a CM5 sensor chip using standard amine coupling reagents according to manufacturer's instructions (BIAcore). […] The resulting sensorgrams were evaluated using BIA evaluation 3.1 software and fitted to a bivalent analyte model, to provide relative binding data.

[5] = molecular target: T1, human IgEλ (U266 derived); assay: HTRF competition: scFv against Eu-cryptate human IgE binding to human FcεRI-Fc; geomean

T1 sequence (P01854 other isoform, or with tags, fused parts or gaps): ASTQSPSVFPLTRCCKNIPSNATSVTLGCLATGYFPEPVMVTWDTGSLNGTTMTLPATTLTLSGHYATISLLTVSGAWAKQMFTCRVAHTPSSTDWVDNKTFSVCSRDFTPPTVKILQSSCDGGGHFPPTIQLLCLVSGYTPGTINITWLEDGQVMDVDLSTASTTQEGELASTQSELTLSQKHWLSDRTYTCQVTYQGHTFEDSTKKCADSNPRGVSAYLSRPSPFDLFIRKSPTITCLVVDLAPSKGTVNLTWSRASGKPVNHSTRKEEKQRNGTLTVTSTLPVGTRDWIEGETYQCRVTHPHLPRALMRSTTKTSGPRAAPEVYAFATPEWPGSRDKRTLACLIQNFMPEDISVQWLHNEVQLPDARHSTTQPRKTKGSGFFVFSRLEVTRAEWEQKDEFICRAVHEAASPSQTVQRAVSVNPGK

Binder | IC50 [1] [nM] | RBL-ER51 calcium signalling IC50 (Geomean), Human IgE [2] [nM] | Kd [4] [nM] | further results
Antibody 1 scFv (scFv, V domains shown, Purified scFv, non-germlined; also called parent; not shown: scFv linker and any tags; the libraries are only cited to Vaughan et al. 1996) VH: QVQLVQSGAEVKKPGATVKLSCKVYGYIFTDYNIYWVRQAPGKGLEWMGLIDPDNGETFYAEKFQGRATMTADTSSDRAYMELTSLTFEDTATYYCATVLHRRLKGGYDYWGRGTLVTVSS VL: QSVLTQPPSVSGAPGQRVTISCTGSSSNIGAGYDVHWYQQLPGTAPKLLIYDNFNRPSGVPDRFSGSKSGTSASLAIIGLQTEDEADYYCQSYDSSLSGSLFGTGTKLTVL | 475 | – | – | –
Antibody 18 IgG (antibody, V domains shown, Whole human IgG (section 1.4: IgG1)) VH: QVQLVQSGAEVKKPGATVKLSCKVYGYIFTDYNIYWVRQAPGKGLEWMGLIDPDNGETFYAEKFQGRATMTADTSSDRAYMELTSLTFEDTATYYCATVLLRSAKGGYDYWGRGTLVTVSS VL: QSVLTQPPSVSGAPGQRVTISCTGSSSNIGAGYDVHWYQQLPGTAPKLLIYDNFNRPSGVPDRFSGSKSGTSASLAIIGLQTEDEADYYCQSYDSHLQLSPFGTGTKLTVL | – | 0.532 | 8 | –
Antibody 26 IgG (antibody, V domains shown) VH: QVQLVQSGAEVKKPGATVKLSCKVYGYIFTDYNIYWVRQAPGKGLEWMGLIDPDNGETFYAEKFQGRATMTADTSSDRAYMELTSLTFEDTATYYCATVSLKEAKGGYDYWGRGTLVTVSS VL: QSVLTQPPSVSGAPGQRVTISCTGSSSNIGAGYDVHWYQQLPGTAPKLLIYDNFNRPSGVPDRFSGSKSGTSASLAIIGLQTEDEADYYCQSYDSASRHAPFGTGTKLTVL | – | 0.398 | – | RBL-ER51 calcium signalling IC50 (Geomean), Cynomolgus IgE [3]: 5.1 nM
Antibody 5 scFv (scFv, V domains shown, Purified scFv, non-germlined; not shown: scFv linker and any tags; the libraries are only cited to Vaughan et al. 1996) VH: QVQLVQSGAEVKKPGATVKLSCKVYGYIFTDYNIYWVRQAPGKGLEWMGLIDPDNGETFYAEKFQGRATMTADTSSDRAYMELTSLTFEDTATYYCATVMGKWIKGGYDYWGRGTLVTVSS VL: QSVLTQPPSVSGAPGQRVTISCTGSSSNIGAGYDVHWYQQLPGTAPKLLIYDNFNRPSGVPDRFSGSKSGTSASLAIIGLQTEDEADYYCQSYDSTKHTSPFGTGTKLTVL | 3 | – | – | –
Antibody 8 scFv (scFv, V domains shown, Purified scFv, non-germlined) VH: QVQLVQSGAEVKKPGATVKLSCKVYGYIFTDYNIYWVRQAPGKGLEWMGLIDPDNGETFYAEKFQGRATMTADTSSDRAYMELTSLTFEDTATYYCATVLGRWIKGGYDYWGRGTLVTVSS VL: QSVLTQPPSVSGAPGQRVTISCTGSSSNIGAGYDVHWYQQLPGTAPKLLIYDNFNRPSGVPDRFSGSKSGTSASLAIIGLQTEDEADYYCQSYDSPTHTSPFGTGTKLTVL | 5 | – | – | –
Antibody 28 IgG (antibody, V domains shown, Whole human IgG (section 1.4: IgG1)) VH: QVQLVQSGAEVKKPGATVKLSCKVYGYIFTDYNIYWVRQAPGKGLEWMGLIDPDNGETFYAEKFQGRATMTADTSSDRAYMELTSLTFEDTATYYCATVMGKWIKGGYDYWGRGTLVTVSS VL: QSVLTQPPSVSGAPGQRVTISCTGSSSNIGAGYDVHWYQQLPGTAPKLLIYDNFNRPSGVPDRFSGSKSGTSASLAIIGLQTEDEADYYCQSYDSSSLHSPFGTGTKLTVL | – | 0.099 | 3.2 | –
Antibody 12 scFv (scFv, V domains shown, Purified scFv, non-germlined) VH: QVQLVQSGAEVKKPGATVKLSCKVYGYIFTDYNIYWVRQAPGKGLEWMGLIDPDNGETFYAEKFQGRATMTADTSSDRAYMELTSLTFEDTATYYCATVMGKWIKGGYDYWGRGTLVTVSS VL: QSVLTQPPSVSGAPGQRVTISCTGSSSNIGAGYDVHWYQQLPGTAPKLLIYDNFNRPSGVPDRFSGSKSGTSASLAIIGLQTEDEADYYCQSYDSSIDHSPFGTGTKLTVL | – | – | – | IC50 [5]: 3 nM
Antibody 13 IgG (antibody, V domains shown, Whole human IgG (section 1.4: IgG1)) VH: QVQLVQSGAEVKKPGATVKLSCKVYGYIFTDYNIYWVRQAPGKGLEWMGLIDPDNGETFYAEKFQGRATMTADTSSDRAYMELTSLTFEDTATYYCATVMGKWIKGGYDYWGRGTLVTVSS VL: QSVLTQPPSVSGAPGQRVTISCTGSSSNIGAGYDVHWYQQLPGTAPKLLIYDNFNRPSGVPDRFSGSKSGTSASLAIIGLQTEDEADYYCQSYDSNILYSPFGTGTKLTVL | – | 0.088 | 2.3 | –
Antibody 6 scFv (scFv, V domains shown, Purified scFv, non-germlined; not shown: scFv linker and any tags; the libraries are only cited to Vaughan et al. 1996) VH: QVQLVQSGAEVKKPGATVKLSCKVYGYIFTDYNIYWVRQAPGKGLEWMGLIDPDNGETFYAEKFQGRATMTADTSSDRAYMELTSLTFEDTATYYCATVMGKWIKGGYDYWGRGTLVTVSS VL: QSVLTQPPSVSGAPGQRVTISCTGSSSNIGAGYDVHWYQQLPGTAPKLLIYDNFNRPSGVPDRFSGSKSGTSASLAIIGLQTEDEADYYCQSYDSTMRHGPFGTGTKLTVL | – | – | – | IC50 [5]: 3 nM
Antibody 12 IgG (antibody, V domains shown, Whole human IgG (section 1.4: IgG1)) VH: QVQLVQSGAEVKKPGATVKLSCKVYGYIFTDYNIYWVRQAPGKGLEWMGLIDPDNGETFYAEKFQGRATMTADTSSDRAYMELTSLTFEDTATYYCATVMGKWIKGGYDYWGRGTLVTVSS VL: QSVLTQPPSVSGAPGQRVTISCTGSSSNIGAGYDVHWYQQLPGTAPKLLIYDNFNRPSGVPDRFSGSKSGTSASLAIIGLQTEDEADYYCQSYDSSIDHSPFGTGTKLTVL | – | 0.134 | 2.3 | –
Antibody 19 IgG (antibody, V domains shown, Whole human IgG (section 1.4: IgG1)) VH: QVQLVQSGAEVKKPGATVKLSCKVYGYIFTDYNIYWVRQAPGKGLEWMGLIDPDNGETFYAEKFQGRATMTADTSSDRAYMELTSLTFEDTATYYCATVMGKWIKGGYDYWGRGTLVTVSS VL: QSVLTQPPSVSGAPGQRVTISCTGSSSNIGAGYDVHWYQQLPGTAPKLLIYDNFNRPSGVPDRFSGSKSGTSASLAIIGLQTEDEADYYCQSYDSTLSHSPFGTGTKLTVL | – | 0.095 | 2.5 | –
Antibody 16 scFv (scFv, V domains shown, Purified scFv, non-germlined) VH: QVQLVQSGAEVKKPGATVKLSCKVYGYIFTDYNIYWVRQAPGKGLEWMGLIDPDNGETFYAEKFQGRATMTADTSSDRAYMELTSLTFEDTATYYCATVSLKSAKGGYDYWGRGTLVTVSS VL: QSVLTQPPSVSGAPGQRVTISCTGSSSNIGAGYDVHWYQQLPGTAPKLLIYDNFNRPSGVPDRFSGSKSGTSASLAIIGLQTEDEADYYCQSYDSRHHHAPFGTGTKLTVL | 5 | – | – | –
Antibody 20 IgG (antibody, V domains shown, Whole human IgG (section 1.4: IgG1)) VH: QVQLVQSGAEVKKPGATVKLSCKVYGYIFTDYNIYWVRQAPGKGLEWMGLIDPDNGETFYAEKFQGRATMTADTSSDRAYMELTSLTFEDTATYYCATVMGKWIKGGYDYWGRGTLVTVSS VL: QSVLTQPPSVSGAPGQRVTISCTGSSSNIGAGYDVHWYQQLPGTAPKLLIYDNFNRPSGVPDRFSGSKSGTSASLAIIGLQTEDEADYYCQSYDSSTSSSPFGTGTKLTVL | – | 0.191 | 3.3 | –

The next lines start with results.

IC50 [1] [nM] | RBL-ER51 calcium signalling IC50 (Geomean), Human IgE [2] [nM] | Kd [4] [nM] | Binder | further results
– | 0.262 | – | Antibody 22 IgG (antibody, V domains shown) VH: QVQLVQSGAEVKKPGATVKLSCKVYGYIFTDYNIYWVRQAPGKGLEWMGLIDPDNGETFYAEKFQGRATMTADTSSDRAYMELTSLTFEDTATYYCATVTLKSAKGGYDYWGRGTLVTVSS VL: QSVLTQPPSVSGAPGQRVTISCTGSSSNIGAGYDVHWYQQLPGTAPKLLIYDNFNRPSGVPDRFSGSKSGTSASLAIIGLQTEDEADYYCQSYDSSGGYAPFGTGTKLTVL | RBL-ER51 calcium signalling IC50 (Geomean), Cynomolgus IgE [3]: 2.66 nM
– | 0.306 | – | Antibody 21 IgG (antibody, V domains shown) VH: QVQLVQSGAEVKKPGATVKLSCKVYGYIFTDYNIYWVRQAPGKGLEWMGLIDPDNGETFYAEKFQGRATMTADTSSDRAYMELTSLTFEDTATYYCATVTLKSAKGGYDYWGRGTLVTVSS VL: QSVLTQPPSVSGAPGQRVTISCTGSSSNIGAGYDVHWYQQLPGTAPKLLIYDNFNRPSGVPDRFSGSKSGTSASLAIIGLQTEDEADYYCQSYDSSSQLSPFGTGTKLTVL | RBL-ER51 calcium signalling IC50 (Geomean), Cynomolgus IgE [3]: 3.58 nM
2 | – | – | Antibody 4 scFv (scFv, V domains shown, Purified scFv, non-germlined; not shown: scFv linker and any tags; the libraries are only cited to Vaughan et al. 1996) VH: QVQLVQSGAEVKKPGATVKLSCKVYGYIFTDYNIYWVRQAPGKGLEWMGLIDPDNGETFYAEKFQGRATMTADTSSDRAYMELTSLTFEDTATYYCATVMGKWIKGGYDYWGRGTLVTVSS VL: QSVLTQPPSVSGAPGQRVTISCTGSSSNIGAGYDVHWYQQLPGTAPKLLIYDNFNRPSGVPDRFSGSKSGTSASLAIIGLQTEDEADYYCQSYDSRGGHSPFGTGTKLTVL | –
– | 0.292 | 4.6 | Antibody 16 IgG (antibody, V domains shown, Whole human IgG (section 1.4: IgG1)) VH: QVQLVQSGAEVKKPGATVKLSCKVYGYIFTDYNIYWVRQAPGKGLEWMGLIDPDNGETFYAEKFQGRATMTADTSSDRAYMELTSLTFEDTATYYCATVSLKSAKGGYDYWGRGTLVTVSS VL: QSVLTQPPSVSGAPGQRVTISCTGSSSNIGAGYDVHWYQQLPGTAPKLLIYDNFNRPSGVPDRFSGSKSGTSASLAIIGLQTEDEADYYCQSYDSRHHHAPFGTGTKLTVL | –
2 | – | – | Antibody 11 scFv (scFv, V domains shown, Purified scFv, non-germlined) VH: QVQLVQSGAEVKKPGATVKLSCKVYGYIFTDYNIYWVRQAPGKGLEWMGLIDPDNGETFYAEKFQGRATMTADTSSDRAYMELTSLTFEDTATYYCATVMGKWIKGGYDYWGRGTLVTVSS VL: QSVLTQPPSVSGAPGQRVTISCTGSSSNIGAGYDVHWYQQLPGTAPKLLIYDNFNRPSGVPDRFSGSKSGTSASLAIIGLQTEDEADYYCQSYDSPTLTSPFGTGTKLTVL | –
– | 0.109 | 2.7 | Antibody 23 IgG (antibody, V domains shown, Whole human IgG (section 1.4: IgG1)) VH: QVQLVQSGAEVKKPGATVKLSCKVYGYIFTDYNIYWVRQAPGKGLEWMGLIDPDNGETFYAEKFQGRATMTADTSSDRAYMELTSLTFEDTATYYCATVMGKWIKGGYDYWGRGTLVTVSS VL: QSVLTQPPSVSGAPGQRVTISCTGSSSNIGAGYDVHWYQQLPGTAPKLLIYDNFNRPSGVPDRFSGSKSGTSASLAIIGLQTEDEADYYCQSYDSHHLYSSFGTGTKLTVL | –
